Drawing on publication PMC9359538, this text covers Anx-A1/gE ratio in the co-precipitate for 1 molecule.

Test [1] concerns the target HSV-1 gE expressed from recombinant adenovirus (HSV-1) (UniProt P04488). The experiment in a line: co-IP; lysates of 293 cells infected with adenovirus expressing gE (48 h) or with HSV-1; IP with anti-gE Ab; western blot for Anx-A1; band ratio Anx-A1/gE.
Test [2] has as its target HSV-1 glycoprotein E (HSV-1) (UniProt P04488). Described as above.

B1: annexin A1 (natural protein)
chain: MAMVSEFLKQAWFIENEEQEYVQTVKSSKGGPGSAVSPYPTFNPSSDVAALHKAIMVKGVDEATIIDILTKRNNAQRQQIKAAYLQETGKPLDETLKKALTGHLEEVVLALLKTPAQFDADELRAAMKGLGTDEDTLIEILASRTNKEIRDINRVYREELKRDLAKDITSDTSGDFRNALLSLAKGDRSEDFGVNEDLADSDARALYEAGERRKGTDVNVFNTILTTRSYPQLRRVFQKYTKYSKHDMNKVLDLELKGDIEKCLTAIVKCATSKPAFFAEKLHQAMKGVGTRHKALIRIMVSRSEIDMNDIKAFYQKMYGISLCQAILDETKGDYEKILVALCGGN
Take B1: the results for the Anx-A1/gE ratio in the co-precipitate in test [1] and in test [2] were 0.44 and 0.51, respectively.
